Laboratory results: the Human Domainome abundance scans (Beltran et al. 2025)
± gives the uncertainty stated by the source.

B1: POU domain, class 4, transcription factor 2, residues 256 to 327; numbered along this chain, Q12837 (parent)
chain: RDLEAFAERFKQRRIKLGVTQADVGSALANLKIPGVGSLSQSTICRFESLTLSHNNMIALKPILQAWLEEAE

Variants of: B1
Test: abundance fitness (aPCA) (normalised: wild type 0, dead -1); higher = more abundant; growth selection in yeast, the domain comes from the species named
Conditions: Homo sapiens

Going from RDLEAFAERFKQRRIKLGVTQADVGSALANLKIPNVGSLSQSTICRFESLTLSHNNMIALKPILQAWLEEAE [G35N] to RDLEAFAERFKQRRIKLGVTQADVGSALANLKIPPVGSLSQSTICRFESLTLSHNNMIALKPILQAWLEEAE [G35P], the abundance fitness falls from -0.116 ± 0.24 to -0.77 ± 0.13.

RDLEAFAERFKQRRIKLGVTQADVGSALANLKIPRVGSLSQSTICRFESLTLSHNNMIALKPILQAWLEEAE [G35R] and RDLEAFAERFKQRRIKLGVTQADVGSALANLKIPSVGSLSQSTICRFESLTLSHNNMIALKPILQAWLEEAE [G35S] are within error of each other in abundance fitness: -0.153 ± 0.1 for the first, -0.228 ± 0.082 for the second.

RDLEAFAERFKQRRIKLGVTQADVGSALANLKIPTVGSLSQSTICRFESLTLSHNNMIALKPILQAWLEEAE [G35T] and RDLEAFAERFKQRRIKLGVTQADVGSALANLKIPVVGSLSQSTICRFESLTLSHNNMIALKPILQAWLEEAE [G35V] are within error of each other in abundance fitness: -0.365 ± 0.12 for the first, -0.299 ± 0.092 for the second.

RDLEAFAERFKQRRIKLGVTQADVGSALANLKIPWVGSLSQSTICRFESLTLSHNNMIALKPILQAWLEEAE [G35W] and RDLEAFAERFKQRRIKLGVTQADVGSALANLKIPYVGSLSQSTICRFESLTLSHNNMIALKPILQAWLEEAE [G35Y] are within error of each other in abundance fitness: -0.525 ± 0.23 for the first, -0.763 ± 0.32 for the second.

RDLEAFAERFKQRRIKLGVTQADVGSALANLKIPGAGSLSQSTICRFESLTLSHNNMIALKPILQAWLEEAE [V36A] and RDLEAFAERFKQRRIKLGVTQADVGSALANLKIPGCGSLSQSTICRFESLTLSHNNMIALKPILQAWLEEAE [V36C] are within error of each other in abundance fitness: -0.18 ± 0.085 for the first, -0.4 ± 0.15 for the second.

RDLEAFAERFKQRRIKLGVTQADVGSALANLKIPGDGSLSQSTICRFESLTLSHNNMIALKPILQAWLEEAE [V36D] and RDLEAFAERFKQRRIKLGVTQADVGSALANLKIPGEGSLSQSTICRFESLTLSHNNMIALKPILQAWLEEAE [V36E] are within error of each other in abundance fitness: -0.278 ± 0.21 for the first, -0.139 ± 0.12 for the second.

RDLEAFAERFKQRRIKLGVTQADVGSALANLKIPGFGSLSQSTICRFESLTLSHNNMIALKPILQAWLEEAE [V36F] and RDLEAFAERFKQRRIKLGVTQADVGSALANLKIPGHGSLSQSTICRFESLTLSHNNMIALKPILQAWLEEAE [V36H] are within error of each other in abundance fitness: -0.176 ± 0.18 for the first, -0.267 ± 0.19 for the second.

Compared with RDLEAFAERFKQRRIKLGVTQADVGSALANLKIPGIGSLSQSTICRFESLTLSHNNMIALKPILQAWLEEAE [V36I], RDLEAFAERFKQRRIKLGVTQADVGSALANLKIPGKGSLSQSTICRFESLTLSHNNMIALKPILQAWLEEAE [V36K] is lower in abundance fitness: 0.166 ± 0.17 for the first, -0.532 ± 0.14 for the second.

Compared with RDLEAFAERFKQRRIKLGVTQADVGSALANLKIPGLGSLSQSTICRFESLTLSHNNMIALKPILQAWLEEAE [V36L], RDLEAFAERFKQRRIKLGVTQADVGSALANLKIPGMGSLSQSTICRFESLTLSHNNMIALKPILQAWLEEAE [V36M] is lower in abundance fitness: 0.061 ± 0.046 for the first, -0.203 ± 0.11 for the second.

RDLEAFAERFKQRRIKLGVTQADVGSALANLKIPGNGSLSQSTICRFESLTLSHNNMIALKPILQAWLEEAE [V36N] and RDLEAFAERFKQRRIKLGVTQADVGSALANLKIPGQGSLSQSTICRFESLTLSHNNMIALKPILQAWLEEAE [V36Q] are within error of each other in abundance fitness: -0.387 ± 0.19 for the first, -0.147 ± 0.072 for the second.

Compared with RDLEAFAERFKQRRIKLGVTQADVGSALANLKIPGRGSLSQSTICRFESLTLSHNNMIALKPILQAWLEEAE [V36R], RDLEAFAERFKQRRIKLGVTQADVGSALANLKIPGSGSLSQSTICRFESLTLSHNNMIALKPILQAWLEEAE [V36S] is higher in abundance fitness: -0.617 ± 0.071 for the first, -0.186 ± 0.071 for the second.

Going from RDLEAFAERFKQRRIKLGVTQADVGSALANLKIPGTGSLSQSTICRFESLTLSHNNMIALKPILQAWLEEAE [V36T] to RDLEAFAERFKQRRIKLGVTQADVGSALANLKIPGYGSLSQSTICRFESLTLSHNNMIALKPILQAWLEEAE [V36Y], the abundance fitness rises from -0.417 ± 0.09 to -0.047 ± 0.25.

RDLEAFAERFKQRRIKLGVTQADVGSALANLKIPGVASLSQSTICRFESLTLSHNNMIALKPILQAWLEEAE [G37A] and RDLEAFAERFKQRRIKLGVTQADVGSALANLKIPGVCSLSQSTICRFESLTLSHNNMIALKPILQAWLEEAE [G37C] are within error of each other in abundance fitness: -0.098 ± 0.066 for the first, -0.118 ± 0.092 for the second.

RDLEAFAERFKQRRIKLGVTQADVGSALANLKIPGVDSLSQSTICRFESLTLSHNNMIALKPILQAWLEEAE [G37D] and RDLEAFAERFKQRRIKLGVTQADVGSALANLKIPGVESLSQSTICRFESLTLSHNNMIALKPILQAWLEEAE [G37E] are within error of each other in abundance fitness: -0.198 ± 0.18 for the first, -0.207 ± 0.12 for the second.

Compared with RDLEAFAERFKQRRIKLGVTQADVGSALANLKIPGVFSLSQSTICRFESLTLSHNNMIALKPILQAWLEEAE [G37F], RDLEAFAERFKQRRIKLGVTQADVGSALANLKIPGVHSLSQSTICRFESLTLSHNNMIALKPILQAWLEEAE [G37H] is higher in abundance fitness: -0.398 ± 0.12 for the first, 0.083 ± 0.16 for the second.

RDLEAFAERFKQRRIKLGVTQADVGSALANLKIPGVISLSQSTICRFESLTLSHNNMIALKPILQAWLEEAE [G37I] and RDLEAFAERFKQRRIKLGVTQADVGSALANLKIPGVKSLSQSTICRFESLTLSHNNMIALKPILQAWLEEAE [G37K] are within error of each other in abundance fitness: -0.587 ± 0.28 for the first, -0.209 ± 0.11 for the second.

RDLEAFAERFKQRRIKLGVTQADVGSALANLKIPGVLSLSQSTICRFESLTLSHNNMIALKPILQAWLEEAE [G37L] and RDLEAFAERFKQRRIKLGVTQADVGSALANLKIPGVMSLSQSTICRFESLTLSHNNMIALKPILQAWLEEAE [G37M] are within error of each other in abundance fitness: -0.205 ± 0.074 for the first, -0.163 ± 0.085 for the second.

RDLEAFAERFKQRRIKLGVTQADVGSALANLKIPGVNSLSQSTICRFESLTLSHNNMIALKPILQAWLEEAE [G37N] and RDLEAFAERFKQRRIKLGVTQADVGSALANLKIPGVPSLSQSTICRFESLTLSHNNMIALKPILQAWLEEAE [G37P] are within error of each other in abundance fitness: -0.309 ± 0.28 for the first, -0.2 ± 0.1 for the second.

RDLEAFAERFKQRRIKLGVTQADVGSALANLKIPGVQSLSQSTICRFESLTLSHNNMIALKPILQAWLEEAE [G37Q] and RDLEAFAERFKQRRIKLGVTQADVGSALANLKIPGVRSLSQSTICRFESLTLSHNNMIALKPILQAWLEEAE [G37R] are within error of each other in abundance fitness: -0.015 ± 0.097 for the first, -0.111 ± 0.055 for the second.
